Test results: paper PMC6563020, “Protein Redox State Monitoring Studies of Thiol Reactivity” (Antioxidants, 2019)
“And” between values parts separate entries of the source, which are not always exact repeats. Equal values may be shown once. One block for each binder: values may come before it.

Columns and labels:
[1] = biological target: the molecule itself; assay: non-reducing SDS-PAGE with Coomassie staining; purified recombinant CNBD, untreated or treated with H2O2 (1 mM) for 15 min; SDS-PAGE, Coomassie Blue; no Protein-SHifter
[2] = biological target: the molecule itself; assay: SDS-PAGE and immunoblot; untreated rat pulmonary artery smooth muscle cells; lysates on SDS-PAGE, immunoblot with Prx6 antibody; no Protein-SHifter
[3] = biological target: T1, Human peroxiredoxin 6 (Prx6) (human (endogenous in human pulmonary artery smooth muscle cells)), P30041; assay: SDS-PAGE and immunoblot; lysate proteins from untreated human pulmonary artery smooth muscle cells denatured with SDS and incubated with H2O2 (or BME) in a test tube for 15 min; Protein-SHifter Plus added, SDS-PAGE, immunoblot with Prx6 antibody; conditions: remark: other sources report otherwise
T1 chain: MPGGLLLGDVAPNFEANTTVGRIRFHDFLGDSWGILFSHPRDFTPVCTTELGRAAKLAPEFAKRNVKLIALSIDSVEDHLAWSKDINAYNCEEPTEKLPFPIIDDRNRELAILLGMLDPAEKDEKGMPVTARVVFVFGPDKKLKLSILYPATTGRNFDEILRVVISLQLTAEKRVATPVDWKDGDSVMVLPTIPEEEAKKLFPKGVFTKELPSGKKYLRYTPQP

[4] = biological target: T1, Human peroxiredoxin 6 (Prx6) (human …); assay: non-reducing SDS-PAGE and immunoblot; human pulmonary artery smooth muscle cells, with or without deferoxamine (50 uM, 30 min) and H2O2 (15 min); lysates on SDS-PAGE with or without 5% BME, immunoblot with Prx6 antibody; no Protein-SHifter; conditions: remark: other sources report otherwise
[5] = biological target: T1, Human peroxiredoxin 6 (Prx6) (human …); assay: non-reducing SDS-PAGE and immunoblot; untreated (or PDGF-treated) human pulmonary artery smooth muscle cells; TCA-precipitated lysates labelled with Protein-SHifter Plus, SDS-PAGE without BME, immunoblot with Prx6 antibody; conditions: remark: other sources report otherwise

B1: Cyclic nucleotide-binding domain (CNBD) of human HCN4 (hHCN4) (domain or fragment, UniProt Q9Y3Q4 571-708, looked up)
chain: GELSEPLREEIINFNCRKLVASMPLFANADPNFVTSMLTKLRFEVFQPGDYIIREGTIGKKMYFIQHGVVSVLTKGNKETKLADGSYFGEICLLTRGRRTASVRADTYCRLYSLSVDNFNEVLEEYPMMRRAFETVAL
notes: two cysteines; 19 kDa; Subcloned into pETM11; the printed mass of 19 kDa is more than that of residues 571-708 alone, which may mean that the tag was kept; also called hHCN4 CNBD; CNBD domain of hHCN4 channels; source: E. coli BL21 (DE3), purified (Ni2+-NTA, size-exclusion chromatography)
stoichiometry N [1]: 2 and 3

B2: Rat peroxiredoxin 6 (Prx6) (enzyme, UniProt O35244 1-224, looked up)
chain: MPGGLLLGDEAPNFEANTTIGHIRFHDFLGDSWGILFSHPRDFTPVCTTELGRAAKLAPEFAKRNVKLIALSIDSVEDHFAWSKDINAYNGAAPTEKLPFPIIDDKDRDLAILLGMLDPAEKDEKGMPVTARVVFIFGPDKKLKLSILYPATTGRNFDEILRVVDSLQLTASNPVATPVDWKKGESVMVLPTLPEEEAKQLFPKGVFTKELPSGKKYLRYTPQP
notes: Peroxiredoxin 6, rat, one cysteine only (catalytic Cys47); also called rat Prx6; source: endogenous, rat pulmonary artery smooth muscle cells (Cell Applications), in lysate
stoichiometry N [2]: 2

stoichiometry N [3]: 2
stoichiometry N [4]: 2
stoichiometry N [5]: 2 and 3
B3: Human peroxiredoxin 6 (Prx6), P30041 1-224 (enzyme)
chain: T1 chain
